Source: PMC6796855

Target: GST-ATG16L1N (human) (UniProt Q676U5)
Assay: pull-down; recombinant GST fusion (2–200 nM) on glutathione resin, incubated with 1.5 mg of a 1:3.5 mixture of wild-type and ATG7 KO PC-3 lysates; 20 mM Tris-HCl pH 8.0, 200 mM NaCl, 1 mM EDTA, 0.5% NP-40; immunoblot for GST and ATG5; fraction bound quantified

Chain of GST-ATG16L1N (human) (Q676U5 1-69): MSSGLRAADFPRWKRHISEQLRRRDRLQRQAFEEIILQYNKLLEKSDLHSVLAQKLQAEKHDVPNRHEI
Chain of native ATG12–ATG5 conjugate (Q9H1Y0 whole entry): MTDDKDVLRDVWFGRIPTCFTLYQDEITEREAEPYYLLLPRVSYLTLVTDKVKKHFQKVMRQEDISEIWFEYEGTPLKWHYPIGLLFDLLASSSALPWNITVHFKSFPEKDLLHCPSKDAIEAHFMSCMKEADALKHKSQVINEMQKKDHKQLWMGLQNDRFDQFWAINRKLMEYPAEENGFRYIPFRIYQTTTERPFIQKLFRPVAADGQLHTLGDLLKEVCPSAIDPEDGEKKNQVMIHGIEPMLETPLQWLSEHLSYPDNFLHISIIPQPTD
Chain of native ATG12–ATG5 conjugate (O94817 whole entry): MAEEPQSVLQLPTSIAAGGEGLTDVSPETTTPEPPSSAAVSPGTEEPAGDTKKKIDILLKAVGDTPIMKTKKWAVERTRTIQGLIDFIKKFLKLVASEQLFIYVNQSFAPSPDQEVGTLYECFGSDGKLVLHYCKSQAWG

native ATG12–ATG5 conjugate (from UniProt Q9H1Y0 1-275; O94817 1-140) (complex)
fold higher affinity than unconjugated ATG5: 10 fold
